Residue numbers refer to the chain shown, from its start. Each block holds one binder with its values, some of them ahead of it.
Tests used:
[1] = molecular target: T1, mouse endoglin, R&D Systems Cat. No. 1320-EN-025 (mouse, UniProt Q63961 27-581); assay: competition ELISA on coated mouse endoglin, competitor biotinylated M1043 (40 ng/ml)
T1 construct: Coated directly on the plate at 1 ug/ml; also called murine endoglin
T1 sequence (looked up): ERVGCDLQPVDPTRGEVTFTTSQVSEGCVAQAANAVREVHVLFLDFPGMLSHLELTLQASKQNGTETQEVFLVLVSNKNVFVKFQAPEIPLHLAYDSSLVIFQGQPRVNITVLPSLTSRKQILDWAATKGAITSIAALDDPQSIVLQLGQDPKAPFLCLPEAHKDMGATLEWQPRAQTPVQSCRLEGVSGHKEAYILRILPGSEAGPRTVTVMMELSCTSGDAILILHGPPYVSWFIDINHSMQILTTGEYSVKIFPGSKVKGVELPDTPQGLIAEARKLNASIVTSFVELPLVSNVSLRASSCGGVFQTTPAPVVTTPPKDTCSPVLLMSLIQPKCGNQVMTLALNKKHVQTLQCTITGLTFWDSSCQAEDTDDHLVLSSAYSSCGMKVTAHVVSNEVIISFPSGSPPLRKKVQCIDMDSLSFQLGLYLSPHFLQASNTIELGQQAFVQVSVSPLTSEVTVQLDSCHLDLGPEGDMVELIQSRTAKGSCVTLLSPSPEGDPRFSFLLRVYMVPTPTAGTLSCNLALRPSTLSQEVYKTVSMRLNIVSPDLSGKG
Protocol: Nunc Immuno MaxiSorp 96 well flat bottom plates (Fisher Cat. No. DIS-971-030J) were coated with mouse endoglin (R&D Systems, Cat. No. 1320-EN-025) at 1μg/ml in PBS overnight at 4° C. The following day the plate was washed three times with PBST before blocking with PBST/3% Marvel at room temperature for 1 hour. […] Binding of the biotinylated antibody was detected via streptavidin-HRP (Sigma, Cat. No. 55512) and TMB substrate (Sigma, Cat. No. T0440). OD450 nm values were measured on a Dynex MRX TCII plate reader.

[2] = molecular target: T2, human CD105 (endoglin), R&D Systems Cat. No. 1097-EN (human, UniProt P17813 26-586); assay: competition ELISA on captured human CD105, human BMP9 against biotinylated TRC205 (55 ng/ml); human BMP9 as competitor, in nM
T2 construct: Bought protein, captured on the plate by mouse anti-human CD105 (Southern Biotechnologies 9811-01); also called human endoglin
T2 sequence (looked up): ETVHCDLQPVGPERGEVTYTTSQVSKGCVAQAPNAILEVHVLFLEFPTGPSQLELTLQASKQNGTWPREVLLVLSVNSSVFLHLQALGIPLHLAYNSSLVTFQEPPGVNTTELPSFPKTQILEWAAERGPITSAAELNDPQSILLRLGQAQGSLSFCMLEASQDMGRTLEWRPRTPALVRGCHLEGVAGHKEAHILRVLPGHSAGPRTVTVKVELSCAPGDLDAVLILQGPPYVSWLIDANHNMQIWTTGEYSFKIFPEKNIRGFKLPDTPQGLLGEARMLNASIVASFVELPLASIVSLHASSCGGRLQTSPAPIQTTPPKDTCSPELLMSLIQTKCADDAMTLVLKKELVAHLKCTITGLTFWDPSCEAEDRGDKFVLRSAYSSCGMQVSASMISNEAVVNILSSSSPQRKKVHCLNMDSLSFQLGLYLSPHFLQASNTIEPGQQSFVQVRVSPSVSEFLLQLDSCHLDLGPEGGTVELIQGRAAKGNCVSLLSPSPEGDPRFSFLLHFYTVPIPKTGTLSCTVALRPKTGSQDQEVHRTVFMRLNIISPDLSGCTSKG
Protocol: (§1) OD450 nm values were measured on a Dynex MRX TCII plate reader.

[3] = molecular target: T2, human CD105 (endoglin), R&D Systems …; assay: direct ELISA, biotinylated TRC205 on human CD105 captured by anti-CD105, streptavidin-HRP detection
Protocol: as §1

[4] = molecular target: T2, human CD105 (endoglin), R&D Systems …; assay: competition ELISA on captured human CD105, unlabelled TRC205 against biotinylated TRC205 (55 ng/ml); unlabelled TRC205 as competitor, in nM
Protocol: as §1

[5] = molecular target: T3, recombinant endoglin (BIAcore analyte, Example 2) (UniProt P17813 26-586, limits assumed); assay: SPR (BIAcore), antibody captured on protein A, recombinant endoglin as analyte
T3 sequence (looked up): T2 sequence (looked up)
Protocol: Affinity of antibodies can be assessed using, for example, BIAcore analysis using standard protocols. Briefly, protein A is chemically coupled to a BIAcore CM5 chip, with the amount of protein A immobilized corresponding to 2000 RU. Subsequent steps are performed in a running buffer of 10 mM HEPES, 150 mM NaCl, 3 mM EDTA, 0.05% TWEEN, pH=7.4, at 25 degrees Celsius using a 10 Hz data collection rate. […] Start-up cycles are performed using running buffer at a flow rate of 40 μL/min, a contact time of 90 seconds and a dissociation time of 90 seconds. Sample cycles are performed using recombinant endoglin at concentrations ranging from 0 to 40 nM. Endoglin is passed over the BIAcore chip containing captured antibody at a flow rate of 40 μL/min with a contact time of 525 seconds and dissociation time of 2500 seconds. […] Regeneration of the chip is accomplished using 10 mM glycine pH=1.7. Data analysis is performed using BIAcore T100 Evaluation Software v1.1 Signals generated using BIAcore chips with different captured antibody densities are compared and data generated in the absence of recombinant endoglin are used to adjust for the intraassay blank signal. For fitting of the data, the Rₘₐₓ is allowed to float to account for variation in capture levels of each antibody in each cycle. Data from each capture density is fitted simultaneously during analysis of each antibody.

[6] = molecular target: T2, human CD105 (endoglin), R&D Systems …; assay: competition ELISA on captured human CD105 against biotinylated chimeric anti-CD105 (6.25 ng/ml); streptavidin-HRP/TMB, absorbance at 450 nm
Protocol: FIGS. 6A-6F. Anti-CD105 competition ELISA with humanized and humanized/deimmunized antibodies. […] Binding was detected via streptavidin-HRP and TMB substrate. Absorbance (OD) at 450 nm was measured on a plate reader and this was plotted against the test antibody concentration.
as §1

[7] = molecular target: T1, mouse endoglin, R&D Systems Cat. No. …; assay: direct ELISA on coated mouse endoglin, anti-rat IgG peroxidase detection
Protocol: The following day the plate was washed three times with PBST before blocking with PBST/3% Marvel at room temperature for 1 hour. […] Binding of the antibodies was detected via anti-rat IgG peroxidase (Sigma, Cat. No. A9037) and TMB single solution substrate (Invitrogen, Cat. No. 00-2023). The reaction was stopped by adding 3 M HCl and OD450 nm values were measured on a Dynex MRX TCII plate reader.

binding result [1]: binds
B1: mouse BMP9 (R&D Systems, Cat. No. 5566-BP-010) (ligand, UniProt Q9WV56 319-428, looked up)
chain: STGASSHCQKTSLRVNFEDIGWDSWIIAPKEYDAYECKGGCFFPLADDVTPTKHAIVQTLVHLKFPTKVGKACCVPTKLSPISILYKDDMGVPTLKYHYEGMSVAECGCR

IC50 [2]: 14.6 nM
B2: human BMP9 (R&D Systems Cat. No. 3209-BP-010) (ligand, UniProt Q9UK05 320-429, looked up)
chain: B1 chain with T2A, S5G, D33E, I84V

EC50 [3]: 0.046 µg/mL
IC50 [4]: 1.7 nM
B3: TRC205 antibody (antibody, IgG4, V domains shown)
VH: EVQLVESGGGLVKPGGSLRLSCAASGFTFSDAWMDWVRQAPGKGLEWVGEARSKASNHATYYAESVKGRFTISRDDSKNTLYLQMNSLKTEDTAVYYCTRWRRFFDSWGQGTLVTVSS
VL: DIQMTQSPSSLSASVGDRATITCRASSSVSYMHWYQQKPGKAPKPWAYATSNLASGVPSRFSGSGSGTDYTLTISSLQPEDFATYYCQQWSSNPLTFGGGTKVEIK
notes: Humanized and deimmunized IgG4; also called biotinylated TRC205; unlabelled TRC205

Kd [5]: 0.533 nM
koff [5]: 3.41e-05 s⁻¹
kon [5]: 64000 M⁻¹ s⁻¹
B4: humanized/deimmunized anti-endoglin antibody VK1AAVH1R (antibody, human IgG1, V domains shown)
VH: B3 VH with A51I, K54R
VL: B3 VL

binding result [6]: binds
B5: VK2SAVH1S (antibody, V domains shown)
VH: B3 VH with G49S, A51I
VL: B3 VL with M4L, A19V, T22S
notes: humanized/deimmunized anti-endoglin antibody variant

Kd [5]: 0.85 nM
koff [5]: 3.03e-05 s⁻¹
kon [5]: 35600 M⁻¹ s⁻¹
B6: humanized/deimmunized anti-endoglin antibody VK1AAVH1Q (antibody, human IgG1, V domains shown)
VH: B3 VH with A51I, K54Q
VL: B3 VL

binding result [6]: binds
B7: VK2SSVH1Q (antibody, V domains shown)
VH: B3 VH with A51I, K54Q
VL: B3 VL with M4L, A19V, T22S, A47I, T50S
notes: as for B5

Kd [5]: 0.706 nM
koff [5]: 3.25e-05 s⁻¹
kon [5]: 46000 M⁻¹ s⁻¹
B8: humanized/deimmunized anti-endoglin antibody VK1AAVH1A2 (antibody, V domains shown)
VH: B3 VH
VL: B3 VL
notes: It has the same variable domains as TRC205, which is IgG4

binding result [6]: binds
B9: VK2SSVH1S (antibody, V domains shown)
VH: B3 VH with G49S, A51I
VL: B3 VL with M4L, A19V, T22S, A47I, T50S
notes: as for B5

Kd [5]: 0.6 nM
koff [5]: 3.28e-05 s⁻¹
kon [5]: 54700 M⁻¹ s⁻¹
B10: chimeric anti-endoglin antibody (TRC105) (antibody, V domains shown)
VH: EVKLEESGGGLVQPGGSMKLSCAASGFTFSDAWMDWVRQSPEKGLEWVAEIRSKASNHATYYAESVKGRFTISRDDSKSSVYLQMNSLRAEDTGIYYCTRWRRFFDSWGQGTTLTVSS
VL: QIVLSQSPAILSASPGEKVTMTCRASSSVSYMHWYQQKPGSSPKPWIYATSNLASGVPVRFSGSGSGTSYSLTISRVEAEDAATYYCQQWSSNPLTFGAGTKLELK
notes: also called chimeric anti-CD105; c-SN6j

binding result [7]: binds
B11: M1043 antibody (antibody, rat IgG1, V domains shown)
VH: QVQLQQSGAELVKPGSSVKISCKASGYTFTSYDMHWIKQQPGNGLEWIGWIYPGNGNTKYNQKFNGKATLTADKSSSTAYMQLSSLTSEDSAVYFCARGKFGVGDYWGQGVMVTVSS
VL: DTVLTQSPALAVSPGERVSISCRASEGVNSYMHWYQQKPGQQPKLLIYIASNLASGVPARFSGSGSGTDFTLTIDPVEADDTATYFCQQSWNDPYTFGAGTKLELKR
notes: also called Antibody M1043; biotinylated M1043
